For 167 variants, self-cleavage results are on record in the RNAGym collection of RNA variant scans (doi:10.7554/elife.80360).

B1: Hairpin Ribozyme (parent)
chain: GUCCUCUUUCACGUGCGCGUGAAAGAGAGAAGUGAACCAGAGAAACACACGUUGUGGUAUAUUACCUGGUA

The variants in the series derive from B1. Nature of the series: self-cleavage, relative activity (ratio to wild type); higher = more cleavage; co-transcriptional.
G25C U63G: the self-cleavage was 0.189.

G27U C37U: the self-cleavage turned out to be 0.22.

In the case of C48G G54U, the self-cleavage was found to be 0.211.

Regarding G15C G69A, the self-cleavage amounted to 0.414.

For U8C U52A, the self-cleavage turned out to be 0.676.

As to G17U G29U, the self-cleavage turned out to be 0.128.

In the case of U2G G34U, the self-cleavage was found to be 0.984.

For the variant G29C A45C, the self-cleavage is 0.207.

Take C4G G13U: the self-cleavage worked out at 0.21.

In the case of A45G C65U, the self-cleavage worked out at 0.146.

In the case of U60G U70G, the self-cleavage is 0.514.

As for C37A U52C, the self-cleavage is 0.266.

Take G29A G40A: the self-cleavage was determined as 0.133.

On to U33C U62G, for which the self-cleavage was found to be 0.0931.

For A44G G69A, the self-cleavage amounted to 0.0936.

As to C3A U70G, the self-cleavage was 0.708.

For the variant G21C A23U, the self-cleavage worked out at 0.5.

Take U14A A35G: the self-cleavage was found to be 0.956.

As to A26C A39G, the self-cleavage was 0.222.

Consider A47G U53G, for which the self-cleavage turned out to be 0.338.

On to A47U U70G, for which the self-cleavage worked out at 0.141.

On to C10G C38A, for which the self-cleavage came to 0.168.

On to C10A U20C, for which the self-cleavage amounted to 0.732.

Take A43C A59C: the self-cleavage was determined as 0.195.

For the variant G32C U63G, the self-cleavage is 0.035.

Regarding G57A U62C, the self-cleavage was 0.117.

Consider A11C C65U, for which the self-cleavage is 0.431.

With A44C G51A, the self-cleavage stood at 0.0817.

As for U63G A64G, the self-cleavage worked out at 0.134.

As to G25U A47G, the self-cleavage stood at 0.0793.

Consider G21A U60A, for which the self-cleavage stood at 0.804.

For the variant A64G G68A, the self-cleavage was determined as 0.226.

As to G1U U2A, the self-cleavage stood at 0.11.

Take G17U A35G: the self-cleavage was 1.02.

On to C16U U53A, for which the self-cleavage was 1.23.

In the case of A47C C48G, the self-cleavage is 0.0552.

On to U5A G19A, for which the self-cleavage is 0.395.

Consider G27A U55A, for which the self-cleavage stood at 0.169.

Consider G27A A39U, for which the self-cleavage is 0.166.

Consider C4G A71U, for which the self-cleavage came out at 0.289.

As to G19U A39G, the self-cleavage stood at 0.297.

In the case of C38U C46A, the self-cleavage worked out at 0.182.

Regarding C6G G68A, the self-cleavage is 0.132.

For U33G U63C, the self-cleavage was found to be 0.217.

Turning to C16U G42C, the self-cleavage is 0.346.

Turning to G19A, the self-cleavage was determined as 0.853.

On to A59U U70C, for which the self-cleavage turned out to be 0.199.

Turning to C16U G21C, the self-cleavage turned out to be 0.749.

Regarding U63G G68C, the self-cleavage turned out to be 0.169.

For A11U C16A, the self-cleavage is 0.696.

For G13C U67G, the self-cleavage came out at 0.281.

Consider C48A C66A, for which the self-cleavage turned out to be 0.189.

Take A45C U58A: the self-cleavage came out at 0.309.

For C3U C12A, the self-cleavage was 0.546.

Take A11U G29C: the self-cleavage turned out to be 0.0923.

For A39G A47G, the self-cleavage worked out at 0.116.

Consider G19U A28C, for which the self-cleavage was 0.357.

With A44G G51A, the self-cleavage was 0.123.

Take U14G A39C: the self-cleavage was 0.393.

Turning to C10U U62G, the self-cleavage was found to be 0.0799.

On to A28C U55A, for which the self-cleavage worked out at 0.155.

For C4U A36U, the self-cleavage stood at 0.227.

In the case of A41U C65U, the self-cleavage is 1.19.

Regarding G19C G29A, the self-cleavage worked out at 0.112.

For the variant A31G C66G, the self-cleavage amounted to 0.211.

With U58A A61G, the self-cleavage is 0.27.

Consider A36C A43G, for which the self-cleavage came out at 0.131.

Consider A64C U70C, for which the self-cleavage came to 0.0963.

Consider A30U C38U, for which the self-cleavage was determined as 0.232.

Turning to A11U U20G, the self-cleavage stood at 0.907.

With A23G C50G, the self-cleavage is 0.153.

For the variant A49G G54A, the self-cleavage stood at 0.64.

With A23C A31U, the self-cleavage was determined as 0.179.

Regarding U2A C4G, the self-cleavage was 0.0724.

On to A31U C65G, for which the self-cleavage was determined as 0.166.

Regarding G13C G32C, the self-cleavage came to 0.123.

Turning to G51A U52G, the self-cleavage is 0.981.

On to G27C A41G, for which the self-cleavage came out at 0.234.

For the variant U14A A64U, the self-cleavage was 0.171.

In the case of C3U U67C, the self-cleavage came to 0.122.

With C48A A64C, the self-cleavage worked out at 0.0601.

Regarding U52C U55A, the self-cleavage came to 0.318.

With A45G, the self-cleavage is 0.177.

In the case of C18G G51A, the self-cleavage was 0.933.

With A23C U67A, the self-cleavage is 0.211.

In the case of G51U U70C, the self-cleavage worked out at 1.01.

With U20A A45G, the self-cleavage amounted to 0.183.

In the case of G17A A47U, the self-cleavage is 0.132.

Regarding C10A A44C, the self-cleavage was determined as 0.141.

G15U G56A: the self-cleavage was 0.187.

Regarding A44C U55C, the self-cleavage turned out to be 0.172.

As for C18G U20C, the self-cleavage worked out at 0.923.

On to U8A C65U, for which the self-cleavage worked out at 0.258.

With G57A C65U, the self-cleavage is 0.231.

Take U9A C65A: the self-cleavage is 0.69.

In the case of U14G A31U, the self-cleavage was found to be 0.119.

For the variant G13A U52C, the self-cleavage stood at 0.625.

On to C18A U58C, for which the self-cleavage worked out at 1.07.

On to C38U A45G, for which the self-cleavage worked out at 0.197.

As to A24U C50A, the self-cleavage was 0.346.

On to A39G A43U, for which the self-cleavage worked out at 0.141.

Take C37U U60A: the self-cleavage is 0.352.

For the variant A35C G69A, the self-cleavage worked out at 0.378.

G40A U70A: the self-cleavage came out at 0.158.

Turning to G34A G68A, the self-cleavage stood at 0.246.

Consider U33G A41C, for which the self-cleavage was 0.156.

Consider A47C U53A, for which the self-cleavage was 0.28.

With C6G A43U, the self-cleavage worked out at 0.0915.

In the case of A11U A26U, the self-cleavage turned out to be 0.775.

G42A A47C: the self-cleavage stood at 0.219.

Regarding A22C G34U, the self-cleavage is 1.49.

As to A11C C66U, the self-cleavage was 0.408.

Consider G15A U67A, for which the self-cleavage was found to be 0.188.

For C4U A64G, the self-cleavage came out at 0.25.

In the case of A28G A43C, the self-cleavage worked out at 0.153.

In the case of A35G C50U, the self-cleavage was 0.355.

As for A39G G56U, the self-cleavage came out at 0.0978.

As for C12A A30U, the self-cleavage amounted to 0.172.

A22C G68C: the self-cleavage came to 0.247.

On to A23C A64G, for which the self-cleavage came out at 0.646.

On to C12A G19C, for which the self-cleavage was determined as 0.944.

Turning to U2C A24C, the self-cleavage is 0.227.

For the variant C10A A11U, the self-cleavage was 0.41.

Turning to U14A A44U, the self-cleavage stood at 0.118.

With G34U U58G, the self-cleavage is 1.25.

For the variant C10G G27U, the self-cleavage came out at 0.195.

For the variant G1U C4A, the self-cleavage was 0.202.

As for G19U G27A, the self-cleavage stood at 0.489.

G19A A24U: the self-cleavage turned out to be 0.629.

Take G42U A59C: the self-cleavage turned out to be 0.118.

As for A28G U52A, the self-cleavage stood at 0.814.

For the variant G42C U55C, the self-cleavage worked out at 0.158.

Regarding U7G U53A, the self-cleavage was 0.967.

For the variant C37G A71C, the self-cleavage is 0.784.

Regarding A24G G25U, the self-cleavage worked out at 0.527.

As for U33G C65U, the self-cleavage turned out to be 0.0212.

Consider G51U G68A, for which the self-cleavage was found to be 0.312.

Turning to U14A G25U, the self-cleavage was 0.521.

For the variant G17C G25C, the self-cleavage is 0.3.

As to U9C U63C, the self-cleavage was 0.133.

With U8A C10A, the self-cleavage is 0.458.

Regarding A11U G68C, the self-cleavage was determined as 0.13.

Turning to A24U G56U, the self-cleavage is 0.232.

In the case of A35G A44U, the self-cleavage turned out to be 0.14.

Consider A23C C38A, for which the self-cleavage came out at 0.161.

For A22C A41C, the self-cleavage is 1.22.

Regarding G29A U58A, the self-cleavage came to 0.165.

As to C6U G56U, the self-cleavage was 0.144.

Take G17A U55G: the self-cleavage amounted to 0.161.

On to G32A A39G, for which the self-cleavage worked out at 0.107.

Turning to G34U U70A, the self-cleavage stood at 1.43.

For A44U C65A, the self-cleavage was found to be 0.184.

Take C48G A64U: the self-cleavage amounted to 0.149.

In the case of C10G G42A, the self-cleavage was 0.185.

C16A C48A: the self-cleavage worked out at 0.123.

C4A A59U: the self-cleavage was determined as 0.0921.

Turning to G51A A71G, the self-cleavage stood at 0.934.

For U14A U20A, the self-cleavage amounted to 0.67.

For the variant G40C C66U, the self-cleavage turned out to be 0.184.

On to G40A G56U, for which the self-cleavage was determined as 0.0994.

On to G34C A61U, for which the self-cleavage is 1.24.

Turning to A45C C50U, the self-cleavage turned out to be 0.0931.

On to U33C U53G, for which the self-cleavage was found to be 0.299.

For the variant C37U G42A, the self-cleavage worked out at 0.198.

On to C3A A47U, for which the self-cleavage was determined as 0.112.

Consider C46G C66G, for which the self-cleavage stood at 0.162.

Consider U20C A59C, for which the self-cleavage was determined as 0.185.
